The text below walks through data of the supplement of paper PMC5998384.

The test system of data set [1] is HeLa Kyoto. Kind of data set: solubility in G1/S (NP-40 vs SDS abundance) (log2 ratio); higher = more soluble. The following applies: cell cycle stage: G1/S.
Data set [2] deals with HeLa Kyoto. Put plainly: melting temperature (median over replicates), in situ; higher = more thermally stable.
The subject of data set [3] is HeLa Kyoto. Put plainly: solubility change mitosis vs G1/S (difference of NP-40 vs SDS log2 ratios) (log2 ratio difference); higher = more soluble in mitosis.
Data set [4] has as its system HeLa Kyoto. Put plainly: thermal stability score vs G1/S (z-score of summed log2 fold changes over temperatures); higher = more thermally stable than in G1/S.
The mark [5] stands for this setting: cell cycle stage: early G1 (4.5 h after nocodazole release).
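For melting temperature (median over replicates), in situ in this document: HeLa Kyoto cells synchronized by double thymidine or nocodazole block, proteins quantified by TMT10plex mass spectrometry, three independent biological replicates.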
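For solubility change mitosis vs G1/S (difference of NP-40 vs SDS log2 ratios) in this document: synchronized HeLa Kyoto cells (double thymidine block for G1/S, nocodazole release for mitosis), protein amounts in NP-40 versus SDS lysates quantified by mass spectrometry, three biological replicates.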
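For solubility in G1/S (NP-40 vs SDS abundance) in this document: HeLa Kyoto cells arrested at G1/S by double thymidine block, proteins quantified by TMT10plex mass spectrometry in mild NP-40 versus SDS extracts, three biological replicates.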
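For thermal stability score vs G1/S (z-score of summed log2 fold changes over temperatures) in this document: synchronized HeLa Kyoto cells, proteins quantified by TMT10plex mass spectrometry, three biological replicates, mitosis taken 0.5 h after nocodazole release, G1/S directly after double thymidine block.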

Take “MATAEVLNIGKKLYEGKTKEVYELLDSPGKVLLQSKDQITAGNAARKNHLEGKAAISNKITSCIFQLLQEAGIKTAFTRKCGETAFIAPQCEMIPIEWVCRRIATGSFLKRNPGVKEGYKFYPPKVELFFKDDANNDPQWSEEQLIAAKFCFAGLLIGQTEVDIMSHATQAIFEILEKSWLPQNCTLVDMKIEFGVDVTTKEIVLADVIDNDSWRLWPSGDRSQQKDKQSYRDLKEVTPEGLQMVKKNFEWVAERVELLLKSESQCRVVVLMGSTSDLGHCEKIKKACGNFGIPCELRVTSAHKGPDETLRIKAEYEGDGIPTVFVAVAGRSNGLGPVMSGNTAYPVISCPPLTPDWGVQDVWSSLRLPSGLGCSTVLSPEGSAQFAAQIFGLSNHLVWSKLRASILNTWISLKQADKKIRECNL [PAICS]”: the “solubility in G1/S (log2)” value in data set [1] worked out at 0.271. Also, the figures for the melting temperature in data set [2] (cell cycle stage: G1/S) and in data set [2] (cell cycle stage: mitosis) were 63.2 °C and 66.2 °C, respectively. In addition, the “solubility change mitosis (log2)” value in data set [3] is -0.0303. The results for the thermal stability score in data set [4] (setting [5]) and in data set [4] (cell cycle stage: mitosis) were -0.183 and -0.625, respectively.

For the sequence “MATAMDWLPWSLLLFSLMCETSAFYVPGVAPINFHQNDPVEIKAVKLTSSRTQLPYEYYSLPFCQPSKITYKAENLGEVLRGDRIVNTPFQVLMNSEKKCEVLCSQSNKPVTLTVEQSRLVAERITEDYYVHLIADNLPVATRLELYSNRDSDDKKKEKDVQFEHGYRLGFTDVNKIYLHNHLSFILYYHREDMEEDQEHTYRVVRFEVIPQSIRLEDLKADEKSSCTLPEGTNSSPQEIDPTKENQLYFTYSVHWEESDIKWASRWDTYLTMSDVQIHWFSIINSVVVVFFLSGILSMIIIRTLRKDIANYNKEDDIEDTMEESGWKLVHGDVFRPPQYPMILSSLLGSGIQLFCMILIVIFVAMLGMLSPSSRGALMTTACFLFMFMGVFGGFSAGRLYRTLKGHRWKKGAFCTATLYPGVVFGICFVLNCFIWGKHSSGAVPFPTMVALLCMWFGISLPLVYLGYYFGFRKQPYDNPVRTNQIPRQIPEQRWYMNRFVGILMAGILPFGAMFIELFFIFSAIWENQFYYLFGFLFLVFIILVVSCSQISIVMVYFQLCAEDYRWWWRNFLVSGGSAFYVLVYAIFYFVNKLDIVEFIPSLLYFGYTALMVLSFWLLTGTIGFYAAYMFVRKIYAAVKID [TM9SF4]”, the “solubility in G1/S (log2)” value in data set [1] is -0.198. Moreover, the melting temperature in data set [2] (cell cycle stage: G1/S) amounted to 52.5 °C; in data set [2] (cell cycle stage: mitosis) it was 53.3 °C. In addition, the “solubility change mitosis (log2)” value in data set [3] is -0.228. Besides, the thermal stability score in data set [4] (setting [5]) was 1.93; in data set [4] (cell cycle stage: mitosis) it was 4.73.

Regarding “MATANGAVENGQPDRKPPALPRPIRNLEVKFTKIFINNEWHESKSGKKFATCNPSTREQICEVEEGDKPDVDKAVEAAQVAFQRGSPWRRLDALSRGRLLHQLADLVERDRATLAALETMDTGKPFLHAFFIDLEGCIRTLRYFAGWADKIQGKTIPTDDNVVCFTRHEPIGVCGAITPWNFPLLMLVWKLAPALCCGNTMVLKPAEQTPLTALYLGSLIKEAGFPPGVVNIVPGFGPTVGAAISSHPQINKIAFTGSTEVGKLVKEAASRSNLKRVTLELGGKNPCIVCADADLDLAVECAHQGVFFNQGQCCTAASRVFVEEQVYSEFVRRSVEYAKKRPVGDPFDVKTEQGPQIDQKQFDKILELIESGKKEGAKLECGGSAMEDKGLFIKPTVFSEVTDNMRIAKEEIFGPVQPILKFKSIEEVIKRANSTDYGLTAAVFTKNLDKALKLASALESGTVWINCYNALYAQAPFGGFKMSGNGRELGEYALAEYTEVKTVTIKLGDKNP [ALDH1A3]”, the “solubility in G1/S (log2)” value in data set [1] came to 0.122. The results for the melting temperature in data set [2] (cell cycle stage: G1/S) and in data set [2] (cell cycle stage: mitosis) were 55.4 °C and 57.5 °C, respectively. Besides, the “solubility change mitosis (log2)” value in data set [3] was -0.0783. The thermal stability score in data set [4] (setting [5]) is -0.893; in data set [4] (cell cycle stage: mitosis), -0.266.

“MATATPVPPRMGSRAGGPTTPLSPTRLSRLQEKEELRELNDRLAVYIDKVRSLETENSALQLQVTEREEVRGRELTGLKALYETELADARRALDDTARERAKLQIELGKCKAEHDQLLLNYAKKESDLNGAQIKLREYEAALNSKDAALATALGDKKSLEGDLEDLKDQIAQLEASLAAAKKQLADETLLKVDLENRCQSLTEDLEFRKSMYEEEINETRRKHETRLVEVDSGRQIEYEYKLAQALHEMREQHDAQVRLYKEELEQTYHAKLENARLSSEMNTSTVNSAREELMESRMRIESLSSQLSNLQKESRACLERIQELEDLLAKEKDNSRRMLTDKEREMAEIRDQMQQQLNDYEQLLDVKLALDMEISAYRKLLEGEEERLKLSPSPSSRVTVSRASSSRSVRTTRGKRKRVDVEESEASSSVSISHSASATGNVCIEEIDVDGKFIRLKNTSEQDQPMGGWEMIRKIGDTSVSYKYTSRYVLKAGQTVTIWAANAGVTASPPTDLIWKNQNSWGTGEDVKVILKNSQGEEVAQRSTVFKTTIPEEEEEEEEAAGVVVEEELFHQQGTPRASNRSCAIM [LMNB1]”: the “solubility in G1/S (log2)” value in data set [1] was -1.97. In addition, the figures for the melting temperature in data set [2] (cell cycle stage: G1/S) and in data set [2] (cell cycle stage: mitosis) were 51.1 °C and 50.1 °C, respectively. The “solubility change mitosis (log2)” value in data set [3] came out at 1.92. Further, the thermal stability score in data set [4] (setting [5]) was -12; in data set [4] (cell cycle stage: mitosis), -7.18.
